{"source": "patent US20100254978A1", "about": "(UCB, published 2010)", "key": {"[1]": {"target": "T1, Rhesus OX40 on activated rhesus CD4+ T cells (rhesus, UniProt P16003 26-458)", "T1 sequence (P16003 26-458)": "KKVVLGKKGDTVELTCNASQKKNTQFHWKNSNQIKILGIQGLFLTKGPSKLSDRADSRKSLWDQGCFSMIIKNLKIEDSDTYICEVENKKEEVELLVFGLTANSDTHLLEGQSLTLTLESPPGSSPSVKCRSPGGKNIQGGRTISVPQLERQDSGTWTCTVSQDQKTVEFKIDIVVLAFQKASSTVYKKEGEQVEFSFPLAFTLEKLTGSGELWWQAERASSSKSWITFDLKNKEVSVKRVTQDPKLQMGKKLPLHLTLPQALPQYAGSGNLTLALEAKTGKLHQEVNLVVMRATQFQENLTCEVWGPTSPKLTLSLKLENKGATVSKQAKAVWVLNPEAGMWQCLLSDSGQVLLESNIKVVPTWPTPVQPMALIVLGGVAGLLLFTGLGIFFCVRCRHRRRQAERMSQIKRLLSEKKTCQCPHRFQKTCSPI", "experiment": "flow cytometry equilibrium binding on activated CD4+ T cells, against human cells as reference"}, "[2]": {"target": "T2, Human OX40 expressed on the surface of activated human CD4+OX40+ T cells (human, UniProt P43489 29-277)", "T2 construct": "whole, on cells; Also used as the target for the functional assays on human PBMC (endogenous OX40); also called cell surface OX40; cell-surface expressed OX40", "T2 sequence (looked up)": "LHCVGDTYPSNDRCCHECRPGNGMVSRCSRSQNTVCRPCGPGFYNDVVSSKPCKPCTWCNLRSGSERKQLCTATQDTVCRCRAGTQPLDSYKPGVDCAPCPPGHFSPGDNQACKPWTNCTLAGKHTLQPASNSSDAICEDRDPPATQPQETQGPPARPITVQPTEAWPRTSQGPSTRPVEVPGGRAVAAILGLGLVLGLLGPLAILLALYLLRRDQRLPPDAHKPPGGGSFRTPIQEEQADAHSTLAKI", "experiment": "flow cytometry ligand blocking assay on activated human CD4+OX40+ T cells; competitor biotinylated OX40L (CD252 muCD8) at 2 µg/ml", "description": "The capacity of A26Fab′-PEG to block the interaction between cell-surface expressed OX40 and recombinant OX40L was measured using a flow cytometry-based ligand blocking assay. Briefly, activated human CD4⁺OX40⁺ T cells were pre-incubated with a titration of A26Fab′-PEG. Recombinant OX40L was subsequently added to the cells and allowed to bind in the presence of A26 Fab′-PEG. The proportion of OX40L bound was then detected by flow cytometry using a labelled secondary reagent.\nMethods: Inhibition of OX40L binding to human activated CD4⁺OX40⁺ T Cells by A26Fab′-PEG. PBMC were isolated by separation on a Ficoll gradient and activated with 1 μg/mL PHA-L for 3 days at 37° C., 5% CO₂, 100% humidity. 2.5×10⁵ cells were incubated in the presence of antibody (final concentration range 20 μg/mL-0.0003 μg/mL (229 nM-0.0035 nM)) for 10 minutes on ice. OX40L (biotinylated CD252 muCD8, Ancell) was added at a final concentration of 2 μg/ml and incubated for a further 30 minutes on ice. Cells were washed and OX40L binding detected by incubation with PE-labelled streptavadin (Jackson Immunoresearch) prior to analysis by flow cytometry using a FACScalibur (Becton Dickinson). gA33 Fab′-PEG was used as a non-specific control. The inhibition curve was analysed by non-linear regression (Graphpad Prism®) to determine the IC₅₀. The data shown is from one representative donor of two."}, "[3]": {"target": "T1, Rhesus OX40 on activated rhesus CD4+ T …", "experiment": "flow cytometry saturation binding on activated rhesus CD4+ T cells; n = 1"}, "[4]": {"target": "T3, Human OX40 extracellular (185 aa) domain fused to the murine IgG2a Fc (232 aa) (Ancell No 513-020) (human; murine, UniProt P43489 29-214)", "T3 construct": "extracellular domain; Bought reagent; also called recombinant OX40; human extracellular domain OX40; not shown: murine IgG2a Fc, 232 aa", "T3 sequence (looked up)": "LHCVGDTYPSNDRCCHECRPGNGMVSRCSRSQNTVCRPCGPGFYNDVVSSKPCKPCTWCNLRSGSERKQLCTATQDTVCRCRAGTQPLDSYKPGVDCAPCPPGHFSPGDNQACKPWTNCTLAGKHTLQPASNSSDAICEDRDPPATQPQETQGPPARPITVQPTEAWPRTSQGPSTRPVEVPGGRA", "experiment": "BIAcore 3000 SPR; antibody captured by immobilised anti-human F(ab′)2, human OX40-mFc titrated as analyte", "description": "(§1) BIA (Biamolecular Interaction Analysis) was performed using a BIAcore 3000 (BIAcore AB). Affinipure F(ab′)₂ Fragment goat anti-human IgG, F(ab′)₂ fragment specific (Jackson ImmunoResearch) was immobilised on a CM5 Sensor Chip via amine coupling chemistry to a capture level of ≈4000 response units (RUs). HBS-EP buffer (10 mM HEPES pH 7.4, 0.15 M NaCl, 3 mM EDTA, 0.005% Surfactant P20, BIAcore AB) was used as the running buffer with a flow rate of 10 μl/min. A 10 μl injection of Fab′ at 0.5 μg/mL or Fab′-PEG at 50 μg/mL was used for capture by the immobilised anti-human IgG-F(ab′)₂. Human OX40 was titrated over the captured antibody at various concentrations (25 nM to 0.78 nM) at a flow rate of 30 μL/min. The surface was regenerated by a 10 μL injection of 40 mM HCl, followed by a 5 μL injection of 5 mM NaOH at a flowrate of 10 μL/min.\n(§2) Background subtraction binding curves were analysed using the BlAevaluation software (version 3.2) following standard procedures. Kinetic parameters were determined from the fitting algorithm."}, "[5]": {"target": "T2, Human OX40 expressed on the surface of …", "experiment": "flow cytometry saturation binding of FITC labelled antibody on activated human CD4+OX40+ T cells; one of 3 donors", "description": "Binding of FITC labelled A26Fab′-PEG to activated human CD4⁺OX40⁺ T cells was measured by flow cytometry across a 4-log concentration range.\n(§3) PBMC were isolated by separation on a Ficoll gradient and activated with 1 μg/mL PHA-L for 3 days at 37° C., 5% CO₂, 100% humidity. CD4⁺ T cells were isolated by negative selection using magnetic beads (CD4⁺ T cell Isolation Kit II for Human; Miltenyi Biotec). […] The cells were washed prior to analysis by flow cytometry using a FACScalibur (Becton Dickinson). Two titration curves were produced, one with A26Fab′-PEG and a second with gA33 Fab′-PEG as a non-specific binding control. Linear regression analysis was used to subtract non-specific binding and the specific binding curve thus generated was analysed by non-linear regression (Graphpad Prism®) to determine KD."}, "[6]": {"target": "T2, Human OX40 expressed on the surface of …", "experiment": "cell-based or functional assay"}, "[7]": {"target": "T2, Human OX40 expressed on the surface of …", "experiment": "flow cytometry saturation binding on activated human CD4+ T cells; mean, n = 3", "description": "as §3"}, "[8]": {"target": "T2, Human OX40 expressed on the surface of …", "experiment": "cell-based or functional assay", "remark": "listed apart in the source"}, "[9]": {"target": "Cynomolgus OX40 on activated cynomolgus CD4+ T cells (cynomolgus) (UniProt P79185)", "experiment": "flow cytometry saturation binding on activated cynomolgus CD4+ T cells; n = 3"}, "[10]": {"target": "T3, Human OX40 extracellular (185 aa) …", "experiment": "BIAcore 3000 SPR; antibody captured, human OX40-mFc as analyte; average of 4 determinations", "description": "as §1, §2"}, "[11]": {"target": "Cynomolgus OX40 on activated cynomolgus CD4+ T cells (cynomolgus) (UniProt P79185)", "experiment": "flow cytometry equilibrium binding on activated CD4+ T cells, against human cells as reference"}, "[12]": {"target": "T3, Human OX40 extracellular (185 aa) …", "experiment": "BIAcore 3000 SPR; antibody captured, human OX40-mFc as analyte; average of 5 determinations", "description": "as §1, §2"}}, "note": "“And” between values parts separate entries of the source, which are not always exact repeats. Equal values may be shown once."}
{"binder": "A26Fab′-PEG (PEGylated A26 Fab′ fragment) (Fab, V domains shown, Cys 226 (linear numbering of SEQ ID NO:15): lysyl-maleimide group, each amino group of the lysyl residue linked to a methoxypoly(ethyleneglycol) of about 20,000 Da (total PEG about 40,000 Da), also called A26Fab′-PEGylated) VH: EVQLVESGGGLVQPGGSLRLSCAASGFTFTNYGIHWIRQAPGKGLEWVASISPSGGLTYYRDSVKGRFTISRDDAKNSPYLQMNSLRAEDTAVYYCATGGEGIFDYWGQGTLVTVSS VL: DIQMTQSPSSLSASVGDRVTITCRATQSIYNALAWYQQKPGKAPKLLIYNANTLHTGVPSRFSASGSGTDSTLTISSLQPEDFATYYCQQYYDYPLTFGGGTKVEIKR", "values": [{"measurement": "fold drop off in affinity as compared to human", "setting": "[1]", "value": "< 2", "unit": "fold"}, {"measurement": "IC50", "setting": "[2]", "value": 4.1, "unit": "nM"}, {"measurement": "Kd", "setting": "[3]", "value": 1.2, "unit": "nM"}, {"measurement": "Kd", "setting": "[4]", "value": "0.0137 to 0.0503", "unit": "nM"}, {"measurement": "Kd", "setting": "[5]", "value": "1.19 nM and 1.07 nM and 1.05 nM"}, {"measurement": "IC50 for inhibition of proliferation, Tetanus Toxoid response, donor 1", "setting": "[6]", "value": "0.58 nM and 0.051 µg/mL"}, {"measurement": "IC50 for inhibition of proliferation, Tetanus Toxoid response, donor 2", "setting": "[6]", "value": "1.11 nM and 0.097 µg/mL"}, {"measurement": "Kd", "setting": "[7]", "value": 1.11, "unit": "nM"}, {"measurement": "House Dust Mite - Inhibition of IL-13 production (n = 3), Mean IC50 (nM)", "setting": "[8]", "value": 1.23, "unit": "nM"}, {"measurement": "House Dust Mite - Inhibition of IL-13 production (n = 3), Mean IC50 (µg/ml)", "setting": "[8]", "value": 0.107, "unit": "µg/mL"}, {"measurement": "Mixed Lymphocyte Reaction - Inhibition of Proliferation (n = 10), Mean IC50 (nM)", "setting": "[8]", "value": 2.15, "unit": "nM"}, {"measurement": "Mixed Lymphocyte Reaction - Inhibition of Proliferation (n = 10), Mean IC50 (µg/ml)", "setting": "[8]", "value": 0.188, "unit": "µg/mL"}, {"measurement": "Tetanus Toxoid - Inhibition of Proliferation (n = 2), Mean IC50 (nM)", "setting": "[8]", "value": 0.845, "unit": "nM"}, {"measurement": "Tetanus Toxoid - Inhibition of Proliferation (n = 2), Mean IC50 (µg/ml)", "setting": "[8]", "value": 0.0733, "unit": "µg/mL"}, {"measurement": "Kd", "setting": "[9]", "value": 1.86, "unit": "nM"}, {"measurement": "Kd", "setting": "[10]", "value": 0.0313, "unit": "nM"}, {"measurement": "koff", "setting": "[10]", "value": "1.3e-05", "unit": "s⁻¹"}, {"measurement": "kon", "setting": "[10]", "value": 476000, "unit": "M⁻¹ s⁻¹"}, {"measurement": "fold drop off in affinity as compared to human", "setting": "[11]", "value": "< 2", "unit": "fold"}]}
{"binder": "A26 (humanised CA044-00026, graft gL8gH2) Fab′ fragment, unPEGylated (Fab, V domains shown, Produced in E. coli; the OmpA signal peptide is cleaved off; also called unPEGylated humanised Fab fragment A26) VH: EVQLVESGGGLVQPGGSLRLSCAASGFTFTNYGIHWIRQAPGKGLEWVASISPSGGLTYYRDSVKGRFTISRDDAKNSPYLQMNSLRAEDTAVYYCATGGEGIFDYWGQGTLVTVSS VL: DIQMTQSPSSLSASVGDRVTITCRATQSIYNALAWYQQKPGKAPKLLIYNANTLHTGVPSRFSASGSGTDSTLTISSLQPEDFATYYCQQYYDYPLTFGGGTKVEIKR", "values": [{"measurement": "Kd", "setting": "[4]", "value": "0.019 to 0.0454", "unit": "nM"}, {"measurement": "Kd", "setting": "[12]", "value": 0.0296, "unit": "nM"}, {"measurement": "koff", "setting": "[12]", "value": "1.29e-05", "unit": "s⁻¹"}, {"measurement": "kon", "setting": "[12]", "value": 486000, "unit": "M⁻¹ s⁻¹"}]}
